Results: patent US9644037B2, “Antibodies that specifically bind ataxia telangiectasia-mutated and RAD3-related kinase phosphorylated at position 1989 and their use” (THE UNITED STATES OF AMERICA, AS REPRESENTED BY THE …, priority 2013, dated 2017)

Columns and labels:
[1] = test system: ATR pT1989 phospho-peptides conjugated to BSA; experiment: ELISA against phospho-peptide-BSA conjugates (bleed, hybridoma and clone screening); type: binding, human
Procedure: (§1) The titer results from the pair of rabbits for each peptide antigen were determined in a colorimetric ELISA against BSA-conjugated peptides. Plates were coated with 50ng/well peptide-BSA conjugate in bicarbonate buffer pH 9.6 and incubated at 4° C. overnight, then and blocked with 1% BSA in TBS. Diluted (1:250-1:256,000) rabbit anti-sera (50 ul/well) were added and incubated at room temperature. Plates were washed with Tris-buffered saline with 0.05% Tween (TBST). Anti-rabbit secondary conjugated to alkaline phosphatase was used for detection with p-nitrophenyl phosphate (PNPP) substrate. Plates were read at 405 nm with a plate reader.
Independent screening of blood was conducted. Flat bottom, black, high binding 360 μL plates with clear bottom (VWR catalog #29444-037) were coated with 100 ng/well peptide-BSA conjugate in bicarbonate buffer pH 9.6 (Sigma, catalog # C3041-100CAP) and incubated at 4° C. overnight, then and blocked with ODYSSEY® blocking buffer (LiCor, catalog #927-40010). Diluted (1:250-1:1,000,000) rabbit anti-sera (100 ul/well) were added and incubated at 24 C. Plates were washed with phosphate-buffered saline with 0.05% tween-20 (PBS-T). […] Plates were read at 700 nm with a Licor ODYSSEY® scanner. Images were quantified using Licor ODYSSEY® application software v3.0 (FIGS. 3 and 4).
Cell growth was monitored 2-3 weeks after fusion. […]

[2] = target: T1, pT1989 ATR (Homo sapiens, UniProt Q13535); experiment: Western blot of cell lysates probed with anti-ATR-pT1989 antibodies; type: binding
T1 construct: lysates from cells expressing ATR (HT-29, LoVo and DLD-1); endogenous in cells; host or cells: DLD-1 parental, DLD-1 Seckel (Horizon), HT-29, LoVo; with or without gemcitabine
Procedure: Cell growth was monitored 2-3 weeks after fusion. Hybridoma supernatants were screened by standard colorimetric ELISA against BSA-conjugated peptides as described in section C. The screening process consisted of a Primary screen on 40 plates (using bleed 2 of E5571 at 1:100 dilution as a Positive control) clones (44) with O.D. greater than 0.5 were considered putatively positive and were further expanded to 24-well plate. Confirmatory screen was performed and 6 clones were confirmed positive against phospho-specific peptides (Table 4). Additional screening was performed by ELISA using the same assay as for bleed screening (FIG. 5). Western blotting was done on selected clones #7, 27 and 35 for subcloning (FIG. 6). […]
Details for lysate preparation and Western blotting are given in Example I, section E. The antibody detected a single band at about 250 kDa consistent with the predicted molecular weight (MW) for ATR. The antibody also detected an increase in phospho-ATR (pT1989) upon gemcitabine (SIGMA) treatment which is known to increase ATR activity (Mol. Pharmacol. (2005), 68, 1636-1644). […]
Cells were treated for 4 hours with either vehicle (DMSO, 0.01%), 150 nM Gemcitabine (Sigma), 1 uM ATR inhibitor VE-821 or combination of drugs. The antibody detected a single band at about 250 kDa consistent with the predicted MW for ATR. […]

[3] = test system: non-phospho peptide-BSA conjugates; experiment: Direct ELISA against non-phospho peptide-BSA conjugates; type: binding, human
Procedure: as §1

[4] = target: T2, pT1989ATR foci in cell nuclei (Homo sapiens, UniProt Q13535); experiment: Immunofluorescence assay (IFA) on FFPE cells, antibody performance; type: binding
T2 construct: lysates from cells expressing ATR (HT-29, LoVo and DLD-1); endogenous in cells; host or cells: DLD-1 parental, DLD-1 Seckel (Horizon), HT-29, LoVo; with or without gemcitabine
Procedure: Subclones were screened by several assays. Screening was performed by enzyme-linked immunosorbant assay (ELISA) and Western blot for subclones of clones #7, 27 and 35 for subcloning. Subclones of clone #7 were then tested in an immunofluroescent (IFA) assay. Clone #7 was then tested in IFA assay. Formalin fixed paraffin embedded (FFPE) blocks were prepared from DLD-1 cells and DLD-1 Seckel cells treated with and without gemcitabine treatment (100 nM for 4 h). Slides were stained using neat hybridomas supernatants and imaged at 20×.
Formalin fixed paraffin embedded (FFPE) pellets were generated using cells expressing WT ATR (HT29, DLD-1 Parental) or mutated ATR (DLD-1 Seckel (Horizon)), with and without gemcitabine (SIGMA) treatment to induce ATR phosphorylation at pT1989 (Mol. Pharmacol. 2005, 68, 1636-1644). Cells were harvested by trypsinization, transferred into a sterile 50 ml conical centrifuge tubes with media containing 10% serum and pelleted at 1000×g for 5 minutes. Medium was replaced with fresh serum containing medium and centrifuged again at 1000×g, 5 minutes. All but 1 ml (approximately) of medium was removed and the pellet was re-suspended by flicking the tube. Suspended cells were transferred using a 2 ml pipette into a clean 1.5 ml conical Eppendorf tube. Cells were pelleted for 30 seconds at 8,000 rpm in an Eppendorf micro centrifuge. […]

T1 sequence (Q13535 whole entry): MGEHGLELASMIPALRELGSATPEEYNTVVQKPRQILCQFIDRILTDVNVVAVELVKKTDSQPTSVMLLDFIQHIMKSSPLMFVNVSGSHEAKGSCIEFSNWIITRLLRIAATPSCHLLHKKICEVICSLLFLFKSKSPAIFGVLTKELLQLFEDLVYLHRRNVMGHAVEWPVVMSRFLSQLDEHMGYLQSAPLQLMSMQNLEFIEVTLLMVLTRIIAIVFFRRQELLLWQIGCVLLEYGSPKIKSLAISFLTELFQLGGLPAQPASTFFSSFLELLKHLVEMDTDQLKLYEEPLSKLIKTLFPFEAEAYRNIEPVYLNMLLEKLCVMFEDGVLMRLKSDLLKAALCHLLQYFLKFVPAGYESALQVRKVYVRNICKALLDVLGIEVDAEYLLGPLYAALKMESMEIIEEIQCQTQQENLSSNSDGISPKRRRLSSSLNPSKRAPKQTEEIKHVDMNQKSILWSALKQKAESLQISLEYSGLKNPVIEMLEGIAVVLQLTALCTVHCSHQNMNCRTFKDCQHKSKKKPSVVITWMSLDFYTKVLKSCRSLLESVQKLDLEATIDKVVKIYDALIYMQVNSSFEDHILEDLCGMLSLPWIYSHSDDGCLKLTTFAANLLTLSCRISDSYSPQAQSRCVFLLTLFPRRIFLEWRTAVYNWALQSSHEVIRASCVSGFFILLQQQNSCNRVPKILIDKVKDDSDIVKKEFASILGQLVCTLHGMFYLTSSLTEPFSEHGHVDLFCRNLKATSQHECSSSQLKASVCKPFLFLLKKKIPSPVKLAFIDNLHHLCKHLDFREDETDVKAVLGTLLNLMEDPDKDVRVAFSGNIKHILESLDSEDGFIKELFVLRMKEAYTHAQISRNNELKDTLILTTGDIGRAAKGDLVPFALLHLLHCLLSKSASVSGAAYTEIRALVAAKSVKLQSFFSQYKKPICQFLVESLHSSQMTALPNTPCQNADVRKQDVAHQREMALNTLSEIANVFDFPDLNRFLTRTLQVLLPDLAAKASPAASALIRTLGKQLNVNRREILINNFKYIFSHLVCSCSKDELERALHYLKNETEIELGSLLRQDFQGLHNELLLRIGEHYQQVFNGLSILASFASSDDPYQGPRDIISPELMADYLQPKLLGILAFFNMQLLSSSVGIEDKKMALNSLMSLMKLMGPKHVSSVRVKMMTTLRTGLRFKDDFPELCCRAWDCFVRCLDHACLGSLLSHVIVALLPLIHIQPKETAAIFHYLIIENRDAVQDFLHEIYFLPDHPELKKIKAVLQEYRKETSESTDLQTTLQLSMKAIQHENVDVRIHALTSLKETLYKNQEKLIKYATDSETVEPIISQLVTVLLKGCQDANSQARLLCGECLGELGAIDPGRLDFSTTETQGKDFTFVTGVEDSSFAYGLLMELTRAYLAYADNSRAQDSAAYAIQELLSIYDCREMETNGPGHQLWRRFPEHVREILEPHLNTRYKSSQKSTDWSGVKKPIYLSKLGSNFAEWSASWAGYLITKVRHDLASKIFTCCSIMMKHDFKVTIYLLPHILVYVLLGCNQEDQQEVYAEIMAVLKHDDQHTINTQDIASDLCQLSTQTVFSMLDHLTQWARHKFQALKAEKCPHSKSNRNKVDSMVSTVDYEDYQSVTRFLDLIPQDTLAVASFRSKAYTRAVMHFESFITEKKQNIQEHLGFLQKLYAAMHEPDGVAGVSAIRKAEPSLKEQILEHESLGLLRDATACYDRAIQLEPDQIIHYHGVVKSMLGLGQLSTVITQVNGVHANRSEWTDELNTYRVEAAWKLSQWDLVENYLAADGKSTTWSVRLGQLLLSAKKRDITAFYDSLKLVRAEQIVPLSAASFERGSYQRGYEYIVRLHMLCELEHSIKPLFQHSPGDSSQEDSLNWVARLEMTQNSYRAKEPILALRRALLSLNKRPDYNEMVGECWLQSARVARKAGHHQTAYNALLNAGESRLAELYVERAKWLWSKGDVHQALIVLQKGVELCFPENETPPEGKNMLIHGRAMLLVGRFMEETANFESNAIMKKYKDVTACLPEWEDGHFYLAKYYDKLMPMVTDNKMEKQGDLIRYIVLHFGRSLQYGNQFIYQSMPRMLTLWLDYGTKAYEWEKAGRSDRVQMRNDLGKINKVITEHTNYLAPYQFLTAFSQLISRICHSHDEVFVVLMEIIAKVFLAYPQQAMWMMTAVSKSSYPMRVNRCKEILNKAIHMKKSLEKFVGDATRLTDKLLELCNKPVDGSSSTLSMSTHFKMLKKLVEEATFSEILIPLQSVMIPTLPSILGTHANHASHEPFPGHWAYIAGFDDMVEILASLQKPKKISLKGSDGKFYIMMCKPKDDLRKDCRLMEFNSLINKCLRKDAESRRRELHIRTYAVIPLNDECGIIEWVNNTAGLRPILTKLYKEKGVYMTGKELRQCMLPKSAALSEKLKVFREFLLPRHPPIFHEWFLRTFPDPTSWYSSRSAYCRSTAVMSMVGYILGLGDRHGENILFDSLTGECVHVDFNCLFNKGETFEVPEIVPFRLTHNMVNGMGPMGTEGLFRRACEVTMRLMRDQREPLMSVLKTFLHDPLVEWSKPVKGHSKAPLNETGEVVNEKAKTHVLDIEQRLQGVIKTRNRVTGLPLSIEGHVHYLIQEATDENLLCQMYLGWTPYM
T2 sequence (Q13535 whole entry): as above

B1: Clone 7A7: subclone of hybridoma 7; rabbit monoclonal antibody that specifically binds pT1989 ATR (antibody)
heavy: QSVEESGGRLVAPGTPLTLTCTVSGIDLMYNAMNWVRQAPGKGLEFIGMIGSGGNTVYASWAKGRFTISKTSTTVGLKMTSLTQEDTATYFCAREGSGGSMDFWGPGTLVTVSSGQPKAPSVFPLAPCCGDTPSSTVTLGCLVKGYLPEPVTVTWNSGTLTNGVRTFPSVRQSSGLYSLSSVVSVTSSSQPVTCNVAHPATNTKVDKTVAPSTCSKPTCPPPELLGGPSVFIFPPKPKDTLMISRTPEVTCVVVDVSQDDPEVQFTWYINNEQVRTARPPLREQQFNSTIRVVSTLPIAHQDWLRGKEFKCKVHNKALPAPIEKTISKARGQPLEPKVYTMGPPREELSSRSVSLTCMINGFYPSDISVEWEKNGKAEDNYKTTPAVLDSDGSYFLYSKLSVPTSEWQRGDVFTCSVMHEALHNHYTQKSISRSPGK
light: ALVMTQSPSSVSAAVGGTVTITCQASQSLYNNNYLAWFQQKPGQRPKLLIYKASTLASGVPSRFKGSGSGTQFTLTISDLECEDAATYYCLGEYKDNVDDGNAFGGGTEVVVEGDPVAPTVLIFPPAADQVATGTVTIVCVANKYFPDVTVTWEVDGTTQTTGIENSKTPQNSADCTYNLSSTLTLTSTQYNSHKEYTCKVTQGTTSVVQSFNRGDC
With B1 the “specificity, titers for BSA conjugated phosphorylated and non-phosphorylated peptides” value ([1]; FIG. 5C) was “specific for the phosphorylated polypeptides”, the “binding to phosphopeptide-BSA conjugates” value ([1]; peptide conjugated at C term or N-term to BSA) was “bound the phosphopeptide” and the “specificity and sensitivity in Western blot” value [2] was “specific for pT1989 ATR”. For the same molecule, the “detection of pATR in Western blot” value ([2]; antibody dilution 1:50, DLD1 lysates) was “detected pATR specifically”, the “cross-reactivity with non-phospho peptide-BSA conjugates” value [3] was “did not cross-react” and the “suitability for pharmacodynamic IFA assay applications” value [4] was “successfully used”.
